In patent US20070280945A1 (Regeneron, published 2007):

How the values were obtained:
[1] = target: T1, hIL-6R on hIL-6-responsive human cells (XG-1 myeloma line, HepG2 hepatoma line) (human, UniProt P08887 20-468); experiment: cell-based or functional assay
T1 sequence (looked up): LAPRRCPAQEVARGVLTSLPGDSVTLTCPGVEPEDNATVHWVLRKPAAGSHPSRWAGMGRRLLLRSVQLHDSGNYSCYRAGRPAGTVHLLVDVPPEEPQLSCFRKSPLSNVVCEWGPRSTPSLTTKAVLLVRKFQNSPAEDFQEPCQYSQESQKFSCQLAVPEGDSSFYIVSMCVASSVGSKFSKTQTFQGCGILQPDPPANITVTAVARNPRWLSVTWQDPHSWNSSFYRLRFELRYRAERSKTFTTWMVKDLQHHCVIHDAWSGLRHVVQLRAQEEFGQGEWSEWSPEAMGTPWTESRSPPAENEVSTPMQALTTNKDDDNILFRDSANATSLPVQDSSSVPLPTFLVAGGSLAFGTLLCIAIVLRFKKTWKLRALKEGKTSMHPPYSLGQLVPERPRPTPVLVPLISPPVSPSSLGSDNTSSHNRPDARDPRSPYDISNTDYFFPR

[2] = target: T1, hIL-6R on hIL-6-responsive human cells …; experiment: cell-based or functional assay; remark: listed apart in the source
[3] = target: T2, recombinant hIL-6R protein, monomeric form (human, UniProt P08887 20-358); experiment: SPR (BIAcore), captured antibody, monomeric hIL-6R
T2 construct: also called monomeric hIL-6R; Human IL6R
T2 sequence: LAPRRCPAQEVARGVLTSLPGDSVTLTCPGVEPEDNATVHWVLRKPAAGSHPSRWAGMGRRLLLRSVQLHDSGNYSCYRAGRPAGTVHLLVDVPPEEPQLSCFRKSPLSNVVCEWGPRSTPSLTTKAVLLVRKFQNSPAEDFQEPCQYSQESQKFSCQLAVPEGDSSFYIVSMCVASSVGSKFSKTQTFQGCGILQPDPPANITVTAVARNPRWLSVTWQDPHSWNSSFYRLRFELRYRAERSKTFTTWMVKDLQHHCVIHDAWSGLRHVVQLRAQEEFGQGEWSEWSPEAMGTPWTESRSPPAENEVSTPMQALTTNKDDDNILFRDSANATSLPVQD
Method: (§1) Four antibodies were tested for cross-reactivity to monkey IL-6R recombinant protein using BIAcore™ technology. Briefly, a biosensor chip on which goat anti-mouse Fc polyclonal antibody was immobilized was used to present anti-hIL-6R monoclonal antibodies to a density of about 75 RU. […] The binding of the receptor to the antibody and the dissociation of the bound complex were monitored in real-time.

[4] = target: T2, recombinant hIL-6R protein, monomeric …; experiment: Kinexa solution-phase competition immunoassay, monomeric hIL-6R
[5] = target: T3, hIL-6R recombinant protein (plate-coated, Example 5) (human, UniProt P08887 20-358, limits assumed); experiment: SPR (BIAcore) competition on hIL-6R; competitor: control antibody
T3 construct: also called antigen
T3 sequence: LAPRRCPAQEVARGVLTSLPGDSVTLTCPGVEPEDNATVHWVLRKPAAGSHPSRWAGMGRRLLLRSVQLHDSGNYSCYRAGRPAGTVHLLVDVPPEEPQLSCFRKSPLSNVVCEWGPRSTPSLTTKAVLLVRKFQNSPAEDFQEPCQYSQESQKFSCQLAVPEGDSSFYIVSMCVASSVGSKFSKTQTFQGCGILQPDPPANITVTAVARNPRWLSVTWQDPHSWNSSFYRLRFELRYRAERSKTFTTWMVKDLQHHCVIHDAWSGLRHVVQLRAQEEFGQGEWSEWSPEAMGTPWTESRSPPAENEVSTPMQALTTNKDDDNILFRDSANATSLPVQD

[6] = target: T2, recombinant hIL-6R protein, monomeric …; experiment: SPR (BIAcore), captured mouse-IgG antibody, monomeric hIL-6R 1.56-12.5 nM
From the text: Briefly, a biosensor chip on which goat anti-mouse Fc polyclonal antibody was immobilized was used to present anti-hIL-6R monoclonal antibodies to a density of about 75 RU. […] The binding of the receptor to the antibody and the dissociation of the bound complex were monitored in real-time. Both association rate constant (ka) and dissociate rate constant (kd) were obtained, and KD calculated (Table 4).
The binding affinity to monomeric hIL-6R of four antibodies having mouse IgG, human IgG1 or human IgG4 (wild-type and modified) were determined using BIAcore™ as described above except a goat anti-human Fc polyclonal antibody surface was used to capture hIgG antibodies.

[7] = target: T4, hIL-6R-hFc (human, UniProt P08887 20-358); experiment: SPR (BIAcore), antibody captured on anti-mouse IgG surface, dimeric hIL-6R
T4 construct: also called dimeric hIL-6R; Dimer; not shown: human Fc (hFc)
T4 sequence: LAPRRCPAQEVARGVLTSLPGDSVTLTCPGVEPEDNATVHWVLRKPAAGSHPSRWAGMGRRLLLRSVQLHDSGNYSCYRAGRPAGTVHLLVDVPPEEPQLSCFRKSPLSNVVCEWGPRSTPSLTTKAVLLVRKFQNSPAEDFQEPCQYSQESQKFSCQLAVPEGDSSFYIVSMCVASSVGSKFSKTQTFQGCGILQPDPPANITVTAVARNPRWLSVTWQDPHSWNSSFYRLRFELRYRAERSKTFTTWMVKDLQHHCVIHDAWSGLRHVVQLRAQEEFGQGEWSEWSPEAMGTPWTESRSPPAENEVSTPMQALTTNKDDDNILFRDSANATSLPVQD

[8] = target: T2, recombinant hIL-6R protein, monomeric …; experiment: SPR (BIAcore), antibody captured on anti-mouse IgG surface, monomeric hIL-6R
Method: More specifically, the affinity of the antibodies for human IL-6R was measured using a BIAcore® 2000 or BIAcore® 3000. The antibody was captured on an anti-mouse IgG surface and exposed to various concentrations of recombinant hIL-6R protein either in monomeric or dimeric form. Kinetic analysis using BIAevaluation™ software was performed to obtain the association and dissociation rate constants.

[9] = target: T5, Recombinant monkey monomeric IL-6R protein (Macaca fascicularis, extracellular domain) (Macaca fascicularis, UniProt P08887 21-330 (human entry)); experiment: SPR (BIAcore), antibody captured on goat anti-mouse Fc, monomeric monkey IL-6R injected
T5 construct: also called Monkey IL6R; monkey IL-6R
T5 chain: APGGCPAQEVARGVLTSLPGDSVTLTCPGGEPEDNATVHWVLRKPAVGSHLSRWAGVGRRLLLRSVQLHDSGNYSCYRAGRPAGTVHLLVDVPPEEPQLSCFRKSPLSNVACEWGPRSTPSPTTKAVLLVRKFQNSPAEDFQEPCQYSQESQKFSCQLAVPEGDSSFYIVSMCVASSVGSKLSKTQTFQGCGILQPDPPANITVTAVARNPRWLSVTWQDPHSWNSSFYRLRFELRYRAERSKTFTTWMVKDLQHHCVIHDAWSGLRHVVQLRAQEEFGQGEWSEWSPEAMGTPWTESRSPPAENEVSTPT
Method: as §1

[10] = target: T2, recombinant hIL-6R protein, monomeric …; experiment: SPR (BIAcore), antibody captured on goat anti-mouse Fc, monomeric IL-6R 1.25-40 nM injected
Method: as §1

[11] = target: T4, hIL-6R-hFc; experiment: SPR (BIAcore): hIL-6R-hFc captured, antibody injected, then 50 nM hIL-6; percent reduction in hIL-6 binding
[12] = target: T4, hIL-6R-hFc; experiment: blocking ELISA: 100 pM hIL-6R-hFc premixed with varied antibody, free hIL-6R-hFc captured on hIL-6-coated plate
Method: This plate was used to capture free hIL-6R-hFc from antibody sample solutions, and the amount of captured hIL-6R-hFc was quantified according to the standard curve. The sample solutions were composed of a constant amount of hIL-6R-hFc recombinant protein (100 pM) and varying amounts of antibody, either in crude hybridoma condition medium or as purified antibody protein, ranging from 0 to about 50 nM in serial dilutions. The antibody-antigen mixtures were incubated at room temperature for ˜2 hours to allow antibody-antigen binding to reach equilibrium. […] After 1 hour binding, the plate was washed and bound hIL-6R-hFc was detected using HRP-conjugated goat anti-hFc polyclonal antibodies (Jackson Immuno Research), and developed using TMB substrate (BD Pharmigen).

[13] = target: T3, hIL-6R recombinant protein …; experiment: competition ELISA on hIL-6R-coated plate presaturated with competitor control antibody; test antibody 50 ng/ml
Method: An antibody binding competition immunoassay was performed using as a control humanized antibody to human IL-6R. Briefly, a 96-well immunosorbent plate was coated with 20 ng per well hIL-6R recombinant protein overnight at 4° C. […] After one hour of additional binding, the free antibody was washed away and the plate-bound antibody was detected with HRP-conjugated goat anti-mouse IgG or IgA, polyclonal antibody and the plate was developed using chromatic HRP substrates and absorbance at 450 nm was recorded.

[14] = target: T4, hIL-6R-hFc; experiment: competition ELISA: antibody premixed with serial dilutions of hIL-6R-hFc, free antibody detected on hIL-6R-hFc-coated plate
Method: Binding affinities of the antibodies to hIL-6R was also measured for either hybridoma-conditioned media or purified proteins by plate-based competition immunoassay. […] For the competition ELISA, briefly, constant amounts of antibody at different levels were premixed with serial dilutions of antigen protein, hIL-6R-hFc, ranging from 0 to 10 μg/ml, and incubated for two hours at room temperature to reach pseudo-binding equilibrium between the antibody and antigen. These solutions were then transferred to 96-well hIL-6R-hFc pre-coated plates to allow the free-antibody in the mixtures to bind to plate-coated hIL-6R-hFc. The plates were typically coated with 1 to 2 μg/ml hIL-6R-hFc protein in PBS solution overnight at 4° C. followed by BSA nonspecific blocking. After washing off excess antibody in solution, plate-bound antibodies were detected with an HRP-conjugated goat anti-mouse IgG or IgA polyclonal antibody reagent and developed using either colorimetric or chemiluminescence substrates. The dependency of the signals on the concentrations of antigen in solution was analyzed with a 4-parameter fit analysis using Prism™ software (Graph Pad) and reported as IC₅₀.

HepG2/Stat3 Luciferase activity IC50 [1]: 0.578 nM
XG-1 cell proliferation Inhibition IC50 [1]: 1.8 nM
HepG2/STAT3 luciferase assay IC50 [2]: 0.578 nM
Kd [3]: 0.241 nM
Kd [4]: 0.197 nM
% reduction of binding by control antibody [5]: 12%
Kd [6]: 0.225 nM
koff [6]: 7.66e-05 s⁻¹
kon [6]: 341000 M⁻¹ s⁻¹
Kd [7]: 0.07 nM
Kd [8]: 0.225 nM
binding result [9]: no binding (tested: 1.25-40 nM)
Kd [10]: 0.24 nM
koff [10]: 6.18e-05 s⁻¹
kon [10]: 257000 M⁻¹ s⁻¹
hIL6/hIL6R Binding Inhibition (%) [11]: 34%
IC50 [12]: 1.1 nM
% reduction of binding by control antibody [13]: 3%
IC50 [14]: 0.041 nM
B1: VV1G4-7 (antibody, IgG2a, V domains shown)
VH: QVQLVQSGAEVKEPGASVKVSCKASGYTFTSYDIIWVRQATGQGLEWMGWMNPNSGNTGYTQNLQGRVTLTRNTSITTVYMELSSLSSEDTAVYYCARDYSSHYYGLDVWGQGTTVTVSS
VL: DIQLTQSPSFLSTSIGDRVTITCWASQDISNYLAWYQQKPGKAPKLLIFVASTLQSGVPSRFSGSGSGTEFTLTISSLQPEDFATYYCQQFNSYPLTFGGGTKVEIK
notes: Human variable regions with mouse constant region
